Results as given in patent US20150086535A1.

Target: retinoblastoma protein (RB1) (human) (UniProt P06400)
Experiment: cell-based or functional assay

Sequence of retinoblastoma protein (RB1) (human) (P06400 2-928 limits assumed): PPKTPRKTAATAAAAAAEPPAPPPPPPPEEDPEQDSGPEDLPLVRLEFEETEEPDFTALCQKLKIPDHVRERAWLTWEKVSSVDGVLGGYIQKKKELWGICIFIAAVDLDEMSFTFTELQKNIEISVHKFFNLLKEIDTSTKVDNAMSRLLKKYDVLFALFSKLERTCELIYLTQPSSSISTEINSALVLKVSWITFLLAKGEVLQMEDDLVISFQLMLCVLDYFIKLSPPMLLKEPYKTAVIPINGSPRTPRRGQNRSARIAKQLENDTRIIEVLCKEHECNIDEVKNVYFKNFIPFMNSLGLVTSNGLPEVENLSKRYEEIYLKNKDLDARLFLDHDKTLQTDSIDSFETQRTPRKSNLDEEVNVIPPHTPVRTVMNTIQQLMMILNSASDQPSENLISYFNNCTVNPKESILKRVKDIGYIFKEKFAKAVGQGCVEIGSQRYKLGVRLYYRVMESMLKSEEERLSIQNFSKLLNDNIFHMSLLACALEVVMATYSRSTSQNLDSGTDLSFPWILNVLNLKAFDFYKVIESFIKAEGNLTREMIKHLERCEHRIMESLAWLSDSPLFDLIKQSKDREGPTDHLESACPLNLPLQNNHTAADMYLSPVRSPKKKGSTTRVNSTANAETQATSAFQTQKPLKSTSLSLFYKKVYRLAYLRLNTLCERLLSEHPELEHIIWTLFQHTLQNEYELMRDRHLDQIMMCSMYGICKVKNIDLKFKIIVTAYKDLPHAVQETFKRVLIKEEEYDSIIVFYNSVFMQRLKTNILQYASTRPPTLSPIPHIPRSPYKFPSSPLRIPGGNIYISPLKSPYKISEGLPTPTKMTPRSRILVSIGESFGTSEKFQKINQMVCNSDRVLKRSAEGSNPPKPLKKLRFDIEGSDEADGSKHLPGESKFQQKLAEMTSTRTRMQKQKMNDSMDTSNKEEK

Question: For “Truncated tumor-derived Merkel cell polyomavirus large T antigen LT339 (MCV339 strain, amino acid 1-455)”, which survivin protein level in BJ fibroblasts (ECL and quantitative LICOR immunoblotting) is on record?
Answer: 3 fold
